Measurements taken from US20210002623A1, “AMINOPEPTIDASE AND ITS USES” (Centre national de la recherche scientifique, priority 2017, published 2021).

Tests used:
[1] = Hydrolytic activity on synthetic chromogenic and fluorogenic monoacyl compounds; format: biochemical; details: for cleavage of tryptophan from substrate Nt end: FIG. 4; for amidolytic activity against aromatic amino acids: phenylalanine and tyrosine, MjTET compared with PhTET2 (FIG. 4)
Experimental: The hydrolytic activity of MjTET on synthetic chromogenic and fluorogenic compounds was determined by using different aminoacyl-pNAs and aminoacyl-AMCs through the following procedure. Reactions were initiated by addition of 4 μg/mL of enzyme to a pre-warmed mixture containing 5 mM of the chromogenic or fluorogenic compound in 50 mM CHES, 150 mM KCl and 0.1 mM CoCl2, pH 8.2, in a total volume of 400 μl. Incubation was performed at 75° C. for 5 min. The quantity of liberated pNA was evaluated by measuring the absorbance at λ=405 nm in a JASCO V-630 spectrophotometer, and for AMC by measuring the fluorescence using excitation and emission wavelengths of 360 and 440 nm, respectively in a JASCO FP-8500 spectrofluorometer. Three replicates and two enzyme blanks were assayed for each experimental point. Additional enzymatic studies were performed in order to investigate MjTET capacities to hydrolyze longer substrates (H-Trp-Phe-Tyr-Ser(PO3H2)-Pro-Arg-pNA (SEQ ID NO: 3), H-Met-Trp-Ala-Glu-Asn-Lys (SEQ ID NO:4), H-Tyr-Asp-Thr-Ser-Ile-Val-Gln-Arg (SEQ ID NO:5), H-Asp-Ala-Tyr-Pro-Ser (SEQ ID NO: 6) and H-Glu-Gly-Ile. 2 μg/ml (final concentration) of MjTET were added to a pre-warmed mixture of 0.75 mM peptide, 50 mM CHES, 150 mM KCl, 0.1 mM CoCl2, pH 8.5. To avoid water evaporation, 20 μl of mineral oil were added on the top of the total volume. The reaction incubation was done at 85° C. during 6 min. Aliquot of 80 μl was then removed and added to 220 μl of 2% acetonitrile (ACN), 0.1% trifluoroacetic acid (TFA). Proteins were removed by centrifugation at 13,000 rpm during 15 min. 100 μl of the supernatant were retrieved and injected on Nova-Pak C18 column, (4 μm, 3.9×300 mm, (Waters)) in a HPLC purifier system (PerkinElmer), equilibrated with 2% ACN, 0.1% TFA. […] Chromatographic runs were carried out at room temperature.

[2] = Effect of temperature on MjTET stability (remaining aminopeptidase activity after incubation at 85° C.); format: physicochemical; details: incubated at 85° C.; remaining activity on Leu-pNA
Experimental: The effect of temperature on MjTET stability was assayed by incubating the enzyme (160 μg/ml) at 85° C. Aliquot of 10 μl was taken at different time intervals, and the remaining aminopeptidase activity was assayed against 5 mM Leu-pNA in 390 μl of 50 mM CHES, 150 mM KCl, 0.1 mM CoCl2, pH 8.5 incubated at 85° C. for 5 min. Enzymatic stability of MjTET was evaluated by measuring the quantity of produced pNA at 405 nm.

[3] = tested on: peptide YFLMNENRYTSWNSE (SEQ ID NO: 2); experiment: Time necessary to hydrolyse 50% of a 15 amino acid peptide at different temperatures; format: biochemical
Experimental: In order to evaluate the effect of the temperature on the activity of MjTET, the inventors evaluated the relative amount of intact peptides further to an incubation with the TET protein at different temperatures.
The inventors have measured the relative amount of intact peptide further to an incubation with MjTET.
MjTET activity was measured on the following peptide: YFLMNENRYTSWNSE (SEQ ID NO: 2). The inventors evaluated the time necessary to hydrolyse 50% of the peptide at different tempertaures

[4] = Effect of temperature on MjTET activity; format: biochemical; details: Leu-pNA
Experimental: Different temperatures ranging from 20 to 90° C. were tested on MjTET activity. Incubation was done in 50 mM CHES, 150 mM KCl, 0.1 mM CoCl2, pH 8.5 in presence of 4 μg/mL of protein and 5 mM Leu-pNA for 5 min. Absorbance of released pNA was measured at 405 nm.

[5] = Effect of pH on MjTET activity; format: biochemical; details: pH 6 and 10.5; Leu-pNA, 75° C.
Experimental: The effect of pH on MjTET activity was determined in pH range varying from 6 to 11. The buffers used were: PIPES, pH 6-7.5; CHES, pH 8.2-10 and CAPS, pH 10.5-11. All buffers were used at 50 mM concentration in presence of 150 mM KCl, 0.1 mM CoCl2, 4 μg/mL of MjTET and 5 mM Leu-pNA as substrate. The given pH values are at 75° C. Incubation was done at 75° C. for 5 min and the quantity of produced pNA was evaluated by measuring the absorbance at 405 nm.

[6] = tested on: H-Trp-Phe-Tyr-Ser(PO3H2)-Pro-Arg-pNA; experiment: Hydrolysis of longer peptide substrates followed by reverse phase HPLC; format: biochemical; details: after 5 minutes, 85° C.
Experimental: The hydrolytic activity of MjTET on synthetic chromogenic and fluorogenic compounds was determined by using different aminoacyl-pNAs and aminoacyl-AMCs through the following procedure. Reactions were initiated by addition of 4 μg/mL of enzyme to a pre-warmed mixture containing 5 mM of the chromogenic or fluorogenic compound in 50 mM CHES, 150 mM KCl and 0.1 mM CoCl2, pH 8.2, in a total volume of 400 μl. Incubation was performed at 75° C. for 5 min. The quantity of liberated pNA was evaluated by measuring the absorbance at λ=405 nm in a JASCO V-630 spectrophotometer, and for AMC by measuring the fluorescence using excitation and emission wavelengths of 360 and 440 nm, respectively in a JASCO FP-8500 spectrofluorometer. Three replicates and two enzyme blanks were assayed for each experimental point. Additional enzymatic studies were performed in order to investigate MjTET capacities to hydrolyze longer substrates (H-Trp-Phe-Tyr-Ser(PO3H2)-Pro-Arg-pNA (SEQ ID NO: 3), H-Met-Trp-Ala-Glu-Asn-Lys (SEQ ID NO:4), H-Tyr-Asp-Thr-Ser-Ile-Val-Gln-Arg (SEQ ID NO:5), H-Asp-Ala-Tyr-Pro-Ser (SEQ ID NO: 6) and H-Glu-Gly-Ile. 2 μg/ml (final concentration) of MjTET were added to a pre-warmed mixture of 0.75 mM peptide, 50 mM CHES, 150 mM KCl, 0.1 mM CoCl2, pH 8.5. To avoid water evaporation, 20 μl of mineral oil were added on the top of the total volume. […]

Row | Molecule | cleavage of tryptophan from substrate Nt end [1] | amidolytic activity ([1]; against Leu-pNA, 75° C., pH 8.2) | amidolytic activity ([1]; against hydrophobic residues such as phenylalanine, methionine and tyrosine) | amidolytic activity ([1]; aspartate, glutamate, cysteine and proline monoacyl substrates) | amidolytic activity ([1]; blocked residues and D-stereo configuration: Ac-Leu-pNA and D-Leu-pNA) | amidolytic activity against aromatic amino acids [1] | amidolytic activity ([1]; polar and positively charged residues) | half-life [2] | Time necessary to hydrolyse 50% of the peptide ([3]; 20 ° C.) [h] | Time necessary to hydrolyse 50% of the peptide ([3]; 30 ° C.) [h] | Time necessary to hydrolyse 50% of the peptide ([3]; 40 ° C.) | Time necessary to hydrolyse 50% of the peptide ([3]; 50 ° C.) [h] | Time necessary to hydrolyse 50% of the peptide ([3]; 60 ° C.) [h] | Time necessary to hydrolyse 50% of the peptide ([3]; 70 ° C.) [h] | Time necessary to hydrolyse 50% of the peptide ([3]; 80 ° C.) [h] | temperature of maximal LAP activity ([4]; pH 8.5, 0.1 mM CoCl2, 20 to 90° C. tested) [°C] | LAP activity in mesophilic conditions ([4]; under 50° C.) | percentage of LAP activity maintained [5] | hydrolysis of the original peptide substrate [6] | hydrolytic activity toward N-terminal phenylalanine residues [1]
1 | MjTET: TET aminopeptidase (M42 family, dodecameric) from Methanocaldococcus jannaschii comprising SEQ ID NO: 1 (protein, listed as Methanococcus jannaschii) MSVVEYLKKLSKLHGISGREDSVREFMKKELEKYCDSVEIDNFGNLIAKRGNKGKKIMIAAHMDEIGLMVKYIDDNGFLKFTKIGGIYDPTILNQKVVVHGSKGDLIGVLGSKPPHRMKEEEKTKIIKYEDMFIDIGAESREEAIEMGVNIGTWVSFLSEVYDLGKNRLTGKAFDDRVGCAVLLEVMKRLSEEDIDCQVYAVGTVQEEVGLKGARVSAFKINPDVAIALDVTIAGDHPGIKKEDAPVDLGKGPVVGIVDASGRGLIAHPKVLDMIKAVSEKYKIDVQWEVGEGGTTDATAIHLTREGIPTGVISVPARYIHTPVEVIDKRDLEKTVELVYNCIKEVNNFF | unable to cleave | optimal amidolytic activity | significant amidolytic activities | no activity was detected | no activity was detected | more efficient | Reduced activities | eight | 75 | 55 | 3,9 h | 1.3 | 1 | 0.6 | 0.25 | 85 | No activity was detected | more than 50% | almost hydrolyzed | 
2 | PhTET2: leucyl aminopeptidase TET complex of Pyrococcus horikoshii with broad activity against neutral amino acids (protein) MEVRNMVDYELLKKVVEAPGVSGYEFLGIRDVVIEEIKDYVDEVKVDKLGNVIAHKKGEGPKVMIAAHMDQIGLMVTHIEKNGFLRVAPIGGVDPKTLIAQRFKVWIDKGKFIYGVGASVPPHIQKPEDRKKAPDWDQIFIDIGAESKEEAEDMGVKIGTVITWDGRLERLGKHRFVSIAFDDRIAVYTILEVAKQLKDAKADVYFVATVQEEVGLRGARTSAFGIEPDYGFAIDVTIAADIPGTPEHKQVTHLGKGTAIKIMDRSVICHPTIVRWLEELAKKHEIPYQLEILLGGGTDAGAIHLTKAGVPTGALSVPARYIHSNTEVVDERDVDATVELMTKALENIHELKI | unable to cleave |  |  |  |  | weak activity |  |  |  |  | 0.5 h |  |  |  |  |  |  |  |  | devoid of hydrolytic activity
